The values that follow come from patent publication US20220119490A1 (Genentech, published 2022).

One assay has as its target T1, PTPRS expressed on cells (human, UniProt Q13332 30-1948).
T1 construct: whole, on cells; also called receptor-type tyrosine-protein phosphatase S
Nature of the assay: cell surface interaction assay: streptavidin-tetramerized biotinylated ECD on transfected cells, immunofluorescence.

The target in another assay is T2, PTPRD expressed on cells (human, UniProt P23468 21-1912).
T2 construct: whole, on cells; also called receptor-type tyrosine-protein phosphatase delta
T2 sequence (P23468 21-1912): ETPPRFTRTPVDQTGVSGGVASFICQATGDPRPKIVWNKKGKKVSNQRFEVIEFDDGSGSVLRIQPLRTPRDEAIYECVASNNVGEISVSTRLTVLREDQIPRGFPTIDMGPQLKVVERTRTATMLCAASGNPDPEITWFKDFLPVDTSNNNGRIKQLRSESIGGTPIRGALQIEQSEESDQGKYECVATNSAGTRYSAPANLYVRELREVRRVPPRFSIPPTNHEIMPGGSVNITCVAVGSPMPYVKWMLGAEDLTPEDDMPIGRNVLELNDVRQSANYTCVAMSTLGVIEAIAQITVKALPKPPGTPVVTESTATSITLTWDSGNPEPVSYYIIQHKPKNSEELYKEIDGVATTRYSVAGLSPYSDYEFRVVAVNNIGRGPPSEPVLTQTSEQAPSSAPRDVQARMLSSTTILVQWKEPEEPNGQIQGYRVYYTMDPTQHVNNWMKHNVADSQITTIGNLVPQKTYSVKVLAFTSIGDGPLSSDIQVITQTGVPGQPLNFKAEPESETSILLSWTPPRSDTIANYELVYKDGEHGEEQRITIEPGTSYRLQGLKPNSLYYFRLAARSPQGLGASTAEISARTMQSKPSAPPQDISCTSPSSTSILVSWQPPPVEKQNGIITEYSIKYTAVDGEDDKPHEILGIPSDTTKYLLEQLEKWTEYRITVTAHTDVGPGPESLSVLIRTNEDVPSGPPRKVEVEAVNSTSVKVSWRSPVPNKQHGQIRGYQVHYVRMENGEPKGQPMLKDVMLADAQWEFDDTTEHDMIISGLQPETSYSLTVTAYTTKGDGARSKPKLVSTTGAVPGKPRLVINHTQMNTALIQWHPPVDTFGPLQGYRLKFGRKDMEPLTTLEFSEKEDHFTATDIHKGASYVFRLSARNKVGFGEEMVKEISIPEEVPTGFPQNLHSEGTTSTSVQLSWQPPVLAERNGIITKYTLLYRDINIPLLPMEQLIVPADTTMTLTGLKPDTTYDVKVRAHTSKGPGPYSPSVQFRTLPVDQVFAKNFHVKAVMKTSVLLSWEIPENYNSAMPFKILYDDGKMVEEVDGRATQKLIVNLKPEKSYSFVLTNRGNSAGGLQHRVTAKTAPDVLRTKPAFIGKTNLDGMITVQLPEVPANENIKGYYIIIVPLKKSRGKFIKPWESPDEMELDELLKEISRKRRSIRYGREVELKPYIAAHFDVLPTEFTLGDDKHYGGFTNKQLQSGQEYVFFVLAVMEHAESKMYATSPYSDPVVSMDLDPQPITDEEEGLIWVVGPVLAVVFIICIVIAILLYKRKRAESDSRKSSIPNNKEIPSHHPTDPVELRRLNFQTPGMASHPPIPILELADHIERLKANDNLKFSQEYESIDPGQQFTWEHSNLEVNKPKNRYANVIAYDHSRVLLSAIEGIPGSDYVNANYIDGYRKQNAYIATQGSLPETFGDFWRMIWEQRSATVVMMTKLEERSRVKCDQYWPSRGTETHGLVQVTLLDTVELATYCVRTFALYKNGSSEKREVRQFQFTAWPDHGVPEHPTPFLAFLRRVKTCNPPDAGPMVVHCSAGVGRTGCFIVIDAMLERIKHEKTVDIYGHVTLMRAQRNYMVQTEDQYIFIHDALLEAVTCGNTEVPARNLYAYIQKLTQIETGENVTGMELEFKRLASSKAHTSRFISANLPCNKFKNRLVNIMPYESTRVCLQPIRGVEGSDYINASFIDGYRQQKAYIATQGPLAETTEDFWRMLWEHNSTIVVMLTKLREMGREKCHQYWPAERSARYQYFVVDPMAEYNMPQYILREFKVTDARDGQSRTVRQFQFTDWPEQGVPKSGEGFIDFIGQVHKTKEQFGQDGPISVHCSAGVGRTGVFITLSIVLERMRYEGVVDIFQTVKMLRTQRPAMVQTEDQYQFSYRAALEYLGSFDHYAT
The assay is described as above.

Assay [1] concerns the target T3, PTPRZ1 expressed on cells (human, UniProt P23471 25-2315).
T3 construct: whole, on cells
Nature of the assay: cell surface interaction assay: query ECD tetramerised with fluorescent streptavidin on transfected cells, immunofluorescence.

In a further assay the target is T4, PTPRG expressed on cells (human, UniProt P23470 20-1445).
T4 construct: whole, on cells
The description is as above.

A further assay concerns the target T5, PTPRT expressed on cells (human, UniProt O14522 26-1441).
T5 construct: whole, on cells
T5 sequence (looked up): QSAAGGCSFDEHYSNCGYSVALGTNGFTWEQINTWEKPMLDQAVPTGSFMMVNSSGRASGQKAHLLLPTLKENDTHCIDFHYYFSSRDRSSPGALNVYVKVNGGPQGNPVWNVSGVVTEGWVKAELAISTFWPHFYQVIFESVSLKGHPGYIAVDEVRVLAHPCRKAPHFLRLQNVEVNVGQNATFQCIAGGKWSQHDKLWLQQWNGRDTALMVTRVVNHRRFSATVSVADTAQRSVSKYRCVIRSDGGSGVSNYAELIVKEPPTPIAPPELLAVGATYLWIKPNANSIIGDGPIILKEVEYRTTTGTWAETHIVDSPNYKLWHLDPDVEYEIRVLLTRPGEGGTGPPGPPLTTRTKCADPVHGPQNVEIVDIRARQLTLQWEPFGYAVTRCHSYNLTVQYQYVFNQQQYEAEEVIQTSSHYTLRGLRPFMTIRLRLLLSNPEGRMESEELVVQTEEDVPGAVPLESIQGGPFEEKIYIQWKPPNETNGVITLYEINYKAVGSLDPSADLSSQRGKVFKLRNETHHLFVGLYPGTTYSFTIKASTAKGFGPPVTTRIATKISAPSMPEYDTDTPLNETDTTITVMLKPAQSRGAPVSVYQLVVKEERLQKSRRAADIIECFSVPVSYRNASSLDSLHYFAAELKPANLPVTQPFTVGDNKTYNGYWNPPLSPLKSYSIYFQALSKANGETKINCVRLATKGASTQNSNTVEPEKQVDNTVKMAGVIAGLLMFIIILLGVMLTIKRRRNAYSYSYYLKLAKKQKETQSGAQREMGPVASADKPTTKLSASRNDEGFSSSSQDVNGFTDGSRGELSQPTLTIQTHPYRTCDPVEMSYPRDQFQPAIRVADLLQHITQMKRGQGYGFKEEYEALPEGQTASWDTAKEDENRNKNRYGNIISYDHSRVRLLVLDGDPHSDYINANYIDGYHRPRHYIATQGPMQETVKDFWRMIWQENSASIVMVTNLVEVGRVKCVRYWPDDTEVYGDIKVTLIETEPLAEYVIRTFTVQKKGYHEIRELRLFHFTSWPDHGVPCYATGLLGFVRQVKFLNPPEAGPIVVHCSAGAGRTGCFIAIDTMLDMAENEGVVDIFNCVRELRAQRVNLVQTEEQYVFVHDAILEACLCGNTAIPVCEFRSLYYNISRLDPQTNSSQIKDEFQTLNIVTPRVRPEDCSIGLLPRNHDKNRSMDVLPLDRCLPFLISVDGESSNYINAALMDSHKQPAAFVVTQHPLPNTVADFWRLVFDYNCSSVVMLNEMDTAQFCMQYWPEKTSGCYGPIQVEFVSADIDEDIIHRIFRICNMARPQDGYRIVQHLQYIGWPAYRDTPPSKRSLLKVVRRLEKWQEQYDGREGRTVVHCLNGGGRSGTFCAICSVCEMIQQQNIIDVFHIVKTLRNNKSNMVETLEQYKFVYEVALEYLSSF
The assay is described as above.

The target in another assay is T6, PTPRO expressed on cells (human, UniProt Q16827 30-1216).
T6 construct: whole, on cells
T6 sequence (looked up): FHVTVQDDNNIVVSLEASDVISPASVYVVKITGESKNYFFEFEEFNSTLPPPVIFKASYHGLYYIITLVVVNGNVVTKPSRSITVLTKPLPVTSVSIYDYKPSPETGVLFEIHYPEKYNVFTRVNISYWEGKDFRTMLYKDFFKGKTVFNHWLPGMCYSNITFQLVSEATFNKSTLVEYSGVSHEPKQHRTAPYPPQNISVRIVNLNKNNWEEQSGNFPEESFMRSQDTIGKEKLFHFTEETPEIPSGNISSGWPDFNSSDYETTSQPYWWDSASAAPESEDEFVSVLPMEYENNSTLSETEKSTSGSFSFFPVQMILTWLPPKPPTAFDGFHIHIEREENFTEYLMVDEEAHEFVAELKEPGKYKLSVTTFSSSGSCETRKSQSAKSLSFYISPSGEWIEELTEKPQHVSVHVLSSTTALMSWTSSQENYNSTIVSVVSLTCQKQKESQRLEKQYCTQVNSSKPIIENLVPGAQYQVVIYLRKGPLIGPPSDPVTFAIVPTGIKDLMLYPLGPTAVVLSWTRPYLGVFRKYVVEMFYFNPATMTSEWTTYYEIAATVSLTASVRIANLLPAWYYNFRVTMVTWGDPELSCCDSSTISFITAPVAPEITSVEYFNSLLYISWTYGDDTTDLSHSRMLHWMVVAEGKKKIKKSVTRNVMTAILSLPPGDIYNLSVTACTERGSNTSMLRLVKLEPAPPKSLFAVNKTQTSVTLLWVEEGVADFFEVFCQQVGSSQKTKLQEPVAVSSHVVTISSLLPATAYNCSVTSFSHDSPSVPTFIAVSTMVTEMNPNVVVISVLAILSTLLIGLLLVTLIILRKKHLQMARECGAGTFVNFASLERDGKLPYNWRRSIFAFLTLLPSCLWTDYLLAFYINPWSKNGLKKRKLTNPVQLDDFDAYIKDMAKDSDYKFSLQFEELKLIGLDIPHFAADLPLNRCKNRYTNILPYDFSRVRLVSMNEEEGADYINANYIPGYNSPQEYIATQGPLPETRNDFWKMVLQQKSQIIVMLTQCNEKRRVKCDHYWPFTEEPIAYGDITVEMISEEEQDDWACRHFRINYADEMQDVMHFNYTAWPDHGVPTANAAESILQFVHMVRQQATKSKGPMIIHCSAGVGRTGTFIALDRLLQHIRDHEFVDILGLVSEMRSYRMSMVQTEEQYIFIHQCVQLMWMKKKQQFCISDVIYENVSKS
The assay is described as above.

In a further assay the target is T7, PTPRM expressed on cells (human, UniProt P28827 21-1452).
T7 construct: whole, on cells
Described as above.

The target of the next assay is T8, PTPRF expressed on cells (human, UniProt P10586 30-1907).
T8 construct: whole, on cells; also called receptor-type tyrosine-protein phosphatase F
Described as above.

The target of assay [2] is T9, BTN3A1 full-length (co-IP) (human, UniProt O00481 30-513).
T9 construct: whole, on cells; also called BTN3A1-HA
T9 sequence (O00481 30-513): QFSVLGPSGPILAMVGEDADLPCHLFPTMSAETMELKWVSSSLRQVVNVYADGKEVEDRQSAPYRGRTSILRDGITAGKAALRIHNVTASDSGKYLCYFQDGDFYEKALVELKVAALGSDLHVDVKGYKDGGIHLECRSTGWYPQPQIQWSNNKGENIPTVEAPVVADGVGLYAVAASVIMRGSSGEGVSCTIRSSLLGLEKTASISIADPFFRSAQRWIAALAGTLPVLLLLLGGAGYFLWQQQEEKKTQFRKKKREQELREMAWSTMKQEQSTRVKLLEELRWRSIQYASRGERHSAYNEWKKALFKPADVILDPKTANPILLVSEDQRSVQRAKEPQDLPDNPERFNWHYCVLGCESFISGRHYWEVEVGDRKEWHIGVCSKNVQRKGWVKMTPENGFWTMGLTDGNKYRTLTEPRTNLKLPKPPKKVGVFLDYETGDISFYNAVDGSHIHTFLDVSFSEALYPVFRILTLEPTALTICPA
Nature of the assay: co-immunoprecipitation from co-transfected cells, IP anti-FLAG, western blot anti-HA. In general terms: In western blotting, separated proteins are transferred to a membrane and probed.

Assay [3] has as its target T10, LRRC4B expressed on cells (human, UniProt Q9NT99 36-713).
T10 construct: whole, on cells; C-terminally tagged in the co-IP; also called NGL-3; LRRC4B-FLAG
T10 sequence (looked up): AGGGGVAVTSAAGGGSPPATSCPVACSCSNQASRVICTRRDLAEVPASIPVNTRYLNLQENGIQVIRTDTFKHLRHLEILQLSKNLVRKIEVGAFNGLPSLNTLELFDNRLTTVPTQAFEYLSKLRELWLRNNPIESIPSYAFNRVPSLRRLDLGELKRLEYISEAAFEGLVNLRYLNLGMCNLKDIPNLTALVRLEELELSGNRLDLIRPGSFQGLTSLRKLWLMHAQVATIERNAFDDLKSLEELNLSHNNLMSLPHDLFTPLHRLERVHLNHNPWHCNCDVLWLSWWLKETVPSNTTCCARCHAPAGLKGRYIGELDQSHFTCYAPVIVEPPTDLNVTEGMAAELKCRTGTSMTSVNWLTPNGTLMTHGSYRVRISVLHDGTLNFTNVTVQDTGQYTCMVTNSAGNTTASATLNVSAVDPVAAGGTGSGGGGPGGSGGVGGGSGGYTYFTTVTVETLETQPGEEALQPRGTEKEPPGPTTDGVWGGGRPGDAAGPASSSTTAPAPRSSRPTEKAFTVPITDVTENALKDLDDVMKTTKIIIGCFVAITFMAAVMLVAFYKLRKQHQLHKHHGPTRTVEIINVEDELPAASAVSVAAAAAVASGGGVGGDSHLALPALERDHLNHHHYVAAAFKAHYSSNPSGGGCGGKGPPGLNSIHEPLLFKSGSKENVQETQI
In words: cell surface interaction assay: query ECD tetramerised with fluorescent streptavidin on transfected cells, immunofluorescence.

T1 sequence (Q13332 30-1948): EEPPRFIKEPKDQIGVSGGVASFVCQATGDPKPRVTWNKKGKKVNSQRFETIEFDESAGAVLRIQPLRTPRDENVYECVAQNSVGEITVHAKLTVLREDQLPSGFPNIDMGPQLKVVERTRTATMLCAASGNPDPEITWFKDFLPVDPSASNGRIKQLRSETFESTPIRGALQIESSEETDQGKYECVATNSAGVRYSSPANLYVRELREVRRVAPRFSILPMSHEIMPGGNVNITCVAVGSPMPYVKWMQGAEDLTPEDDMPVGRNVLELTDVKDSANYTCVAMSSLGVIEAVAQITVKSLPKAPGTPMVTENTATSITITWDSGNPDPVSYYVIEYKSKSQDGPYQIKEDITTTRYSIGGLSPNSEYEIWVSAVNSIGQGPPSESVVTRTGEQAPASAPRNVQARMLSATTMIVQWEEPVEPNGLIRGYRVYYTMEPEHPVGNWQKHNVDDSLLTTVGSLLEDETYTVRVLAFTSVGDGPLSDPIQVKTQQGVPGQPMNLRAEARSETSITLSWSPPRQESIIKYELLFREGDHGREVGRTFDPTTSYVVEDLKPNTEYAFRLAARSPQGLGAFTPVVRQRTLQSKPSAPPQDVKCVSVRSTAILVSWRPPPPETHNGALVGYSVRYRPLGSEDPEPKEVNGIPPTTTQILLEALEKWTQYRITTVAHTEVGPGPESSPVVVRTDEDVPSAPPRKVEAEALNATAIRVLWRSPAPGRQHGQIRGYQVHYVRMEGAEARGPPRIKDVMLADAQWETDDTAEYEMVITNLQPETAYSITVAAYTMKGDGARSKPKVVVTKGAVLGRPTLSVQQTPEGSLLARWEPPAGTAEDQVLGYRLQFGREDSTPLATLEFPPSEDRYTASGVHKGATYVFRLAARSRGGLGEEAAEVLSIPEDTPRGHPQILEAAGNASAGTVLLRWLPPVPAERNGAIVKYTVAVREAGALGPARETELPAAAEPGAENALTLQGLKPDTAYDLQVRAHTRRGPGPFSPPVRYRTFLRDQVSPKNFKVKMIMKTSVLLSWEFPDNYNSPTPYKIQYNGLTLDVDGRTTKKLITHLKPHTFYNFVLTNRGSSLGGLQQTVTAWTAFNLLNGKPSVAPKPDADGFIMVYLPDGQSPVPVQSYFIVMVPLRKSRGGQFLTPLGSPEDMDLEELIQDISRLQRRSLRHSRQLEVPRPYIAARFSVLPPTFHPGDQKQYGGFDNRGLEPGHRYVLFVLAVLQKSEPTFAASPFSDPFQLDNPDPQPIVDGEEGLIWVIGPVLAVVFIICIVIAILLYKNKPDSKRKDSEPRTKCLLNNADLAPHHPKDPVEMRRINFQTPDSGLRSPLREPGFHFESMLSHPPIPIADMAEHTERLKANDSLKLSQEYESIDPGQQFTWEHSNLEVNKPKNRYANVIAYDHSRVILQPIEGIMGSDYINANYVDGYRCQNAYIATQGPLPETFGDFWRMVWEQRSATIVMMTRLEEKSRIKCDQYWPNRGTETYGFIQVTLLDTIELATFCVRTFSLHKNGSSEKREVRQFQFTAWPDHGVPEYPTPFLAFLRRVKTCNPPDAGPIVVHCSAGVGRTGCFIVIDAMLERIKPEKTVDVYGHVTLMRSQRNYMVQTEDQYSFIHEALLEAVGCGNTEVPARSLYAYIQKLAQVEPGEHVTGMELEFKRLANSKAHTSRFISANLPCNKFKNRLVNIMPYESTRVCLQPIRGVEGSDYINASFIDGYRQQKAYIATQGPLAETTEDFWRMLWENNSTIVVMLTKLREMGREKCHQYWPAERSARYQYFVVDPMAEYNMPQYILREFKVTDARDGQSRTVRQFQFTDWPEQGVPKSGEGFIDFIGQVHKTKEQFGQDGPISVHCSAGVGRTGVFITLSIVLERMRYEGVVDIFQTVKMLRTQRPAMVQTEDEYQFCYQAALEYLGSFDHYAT

B1: SLITRK2 extracellular domain (receptor, human, UniProt Q9H156 22-621, looked up)
chain: RKTAKDICKIRCLCEEKENVLNINCENKGFTTVSLLQPPQYRIYQLFLNGNLLTRLYPNEFVNYSNAVTLHLGNNGLQEIRTGAFSGLKTLKRLHLNNNKLEILREDTFLGLESLEYLQADYNYISAIEAGAFSKLNKLKVLILNDNLLLSLPSNVFRFVLLTHLDLRGNRLKVMPFAGVLEHIGGIMEIQLEENPWNCTCDLLPLKAWLDTITVFVGEIVCETPFRLHGKDVTQLTRQDLCPRKSASDSSQRGSHADTHVQRLSPTMNPALNPTRAPKASRPPKMRNRPTPRVTVSKDRQSFGPIMVYQTKSPVPLTCPSSCVCTSQSSDNGLNVNCQERKFTNISDLQPKPTSPKKLYLTGNYLQTVYKNDLLEYSSLDLLHLGNNRIAVIQEGAFTNLTSLRRLYLNGNYLEVLYPSMFDGLQSLQYLYLEYNVIKEIKPLTFDALINLQLLFLNNNLLRSLPDNIFGGTALTRLNLRNNHFSHLPVKGVLDQLPAFIQIDLQENPWDCTCDIMGLKDWTEHANSPVIINEVTCESPAKHAGEILKFLGREAICPDSPNLSDGTVLSMNHNTDTPRSLSVSPSSYPELHTEVPLSVL
notes: extracellular domain; Soluble query, streptavidin tetramer; also called SLITKR2
Take B1: the binding result with PTPRS expressed on cells is on record as “binds”; in the assay with PTPRD expressed on cells, “binds”; in assay [1] it was “no binding”; in the assay with PTPRG expressed on cells it was “no binding”; with PTPRT expressed on cells, “no binding”; in the assay with PTPRO expressed on cells, “no binding”. The binding result in the assay with PTPRM expressed on cells and in the assay with PTPRF expressed on cells was “no binding” throughout.

B2: VSIG8-FLAG (receptor, human, UniProt P0DPA2 22-414, looked up)
immunoprecipitated protein: VRINGDGQEVLYLAEGDNVRLGCPYVLDPEDYGPNGLDIEWMQVNSDPAHHRENVFLSYQDKRINHGSLPHLQQRVRFAASDPSQYDASINLMNLQVSDTATYECRVKKTTMATRKVIVTVQARPAVPMCWTEGHMTYGNDVVLKCYASGGSQPLSYKWAKISGHHYPYRAGSYTSQHSYHSELSYQESFHSSINQGLNNGDLVLKDISRADDGLYQCTVANNVGYSVCVVEVKVSDSRRIGVIIGIVLGSLLALGCLAVGIWGLVCCCCGGSGAGGARGAFGYGNGGGVGGGACGDLASEIREDAVAPGCKASGRGSRVTHLLGYPTQNVSRSLRRKYAPPPCGGPEDVALAPCTAAAACEAGPSPVYVKVKSAEPADCAEGPVQCKNGLLV
notes: full-length, tagged; also called VSIG8 full-length (co-IP)
B2: the binding result in assay [2] is “no binding”.

B3: BTN2A2 extracellular domain (receptor, human, UniProt Q8WVV5 33-265, looked up)
chain: QFTVVGPANPILAMVGENTTLRCHLSPEKNAEDMEVRWFRSQFSPAVFVYKGGRERTEEQMEEYRGRITFVSKDINRGSVALVIHNVTAQENGIYRCYFQEGRSYDEAILRLVVAGLGSKPLIEIKAQEDGSIWLECISGGWYPEPLTVWRDPYGEVVPALKEVSIADADGLFMVTTAVIIRDKYVRNVSCSVNNTLLGQEKETVIFIPESFMPSASPWMVALAVILTASPWM
notes: extracellular domain; Soluble query, streptavidin tetramer
As for B3, the binding result in [3] is listed as “no binding”.
